From patent US20260217804A1 (BIOARCTIC, published 2026) come the findings set out here.

Positions count from the first letter of the chain named. Numbers in names are those of the source.

B1: Pyr12.2 (antibody, IgG2c, V domains shown)
VH: EVQLQQSGPELVKPGTSIKMSCKASGYSFTGFTMNWVKQSHGKNLEWIGLINPYNGVTTYNQKFKGKATITVDKSSRTAYMELLSLTYEDSAVYYCTREGNWEGVYWGQGTPVTVSA
VL: EVVLTQTPLTLSVTIGQSASISCKSSQSLLDSNGKTYLHWFLLRPGQSPKRLIYLVSILDSGVPDRFTGSGSGTDFTLKISRVEAEDLGIYYCVQGTHFPFTFGSGTKLEIKR
notes: also called recombinant antibody Pyr12.2; hybridoma clone Pyr12.2
B2: H2L7 (antibody, human IgG1, kappa, V domains shown)
VH: EVQLVQSGAEVKKPGASVRLSCKASGYSFTGFTMNWVRQALGQGLEWMGLINPYNGVTTYNQKFKGRLTMTRDMSTRTVYMDLSSLRYEDTAVYYCTREGNWEGVYWGQGTLVTVSS
VL: B1 VL with V2I, T7S, T10S, I15L, K24R, L42I, K50R, T68S, L88V, I90V
notes: Humanized IgG1/kappa, expressed in CHO cells; also called humanized Pyr12.2 variant H2L7; VH2/VL7
B3: H2L7-R71A/R83T (antibody, human IgG1, kappa)
heavy: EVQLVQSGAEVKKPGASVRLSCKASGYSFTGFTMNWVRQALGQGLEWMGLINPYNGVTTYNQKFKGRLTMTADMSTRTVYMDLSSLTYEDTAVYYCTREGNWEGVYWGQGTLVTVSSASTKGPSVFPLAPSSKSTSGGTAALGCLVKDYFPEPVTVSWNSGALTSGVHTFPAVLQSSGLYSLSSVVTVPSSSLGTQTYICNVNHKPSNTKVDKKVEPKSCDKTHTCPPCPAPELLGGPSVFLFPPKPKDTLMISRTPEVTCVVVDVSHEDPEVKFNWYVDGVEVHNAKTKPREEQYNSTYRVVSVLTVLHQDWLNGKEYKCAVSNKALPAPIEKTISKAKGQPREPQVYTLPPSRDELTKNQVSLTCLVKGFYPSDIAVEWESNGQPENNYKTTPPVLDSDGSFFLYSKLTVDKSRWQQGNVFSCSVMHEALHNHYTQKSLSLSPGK
light: EIVLTQSPLSLSVTLGQSASISCRSSQSLLDSNGKTYLHWFILRPGQSPRRLIYLVSILDSGVPDRFSGSGSGTDFTLKISRVEAEDVGVYYCVQGTHFPFTFGSGTKLEIKRTVAAPSVFIFPPSDEQLKSGTASVVCLLNNFYPREAKVQWKVDNALQSGNSQESVTEQDSKDSTYSLSSTLTLSKADYEKHKVYACEVTHQGLSSPVTKSFNRGEC
notes: Variant of H2L7 with changes in VH only
B4: H2L7-K12V/R71A (antibody, human IgG1, kappa)
heavy: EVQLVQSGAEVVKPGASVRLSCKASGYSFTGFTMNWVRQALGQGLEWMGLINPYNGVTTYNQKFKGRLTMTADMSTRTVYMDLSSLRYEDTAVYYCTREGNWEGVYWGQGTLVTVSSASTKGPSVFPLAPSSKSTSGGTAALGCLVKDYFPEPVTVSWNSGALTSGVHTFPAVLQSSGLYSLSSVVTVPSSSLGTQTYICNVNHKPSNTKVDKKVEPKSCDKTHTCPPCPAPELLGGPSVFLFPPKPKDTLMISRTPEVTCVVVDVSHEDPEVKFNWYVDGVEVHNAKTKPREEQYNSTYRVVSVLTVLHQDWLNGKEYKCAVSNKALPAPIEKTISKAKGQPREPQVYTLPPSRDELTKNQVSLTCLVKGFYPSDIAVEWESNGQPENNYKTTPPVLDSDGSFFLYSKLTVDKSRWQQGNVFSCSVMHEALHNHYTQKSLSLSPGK
light: B3 light
notes: as for B3
B5: H2L7-K12V/R71A/R83T (antibody, human IgG1, kappa)
heavy: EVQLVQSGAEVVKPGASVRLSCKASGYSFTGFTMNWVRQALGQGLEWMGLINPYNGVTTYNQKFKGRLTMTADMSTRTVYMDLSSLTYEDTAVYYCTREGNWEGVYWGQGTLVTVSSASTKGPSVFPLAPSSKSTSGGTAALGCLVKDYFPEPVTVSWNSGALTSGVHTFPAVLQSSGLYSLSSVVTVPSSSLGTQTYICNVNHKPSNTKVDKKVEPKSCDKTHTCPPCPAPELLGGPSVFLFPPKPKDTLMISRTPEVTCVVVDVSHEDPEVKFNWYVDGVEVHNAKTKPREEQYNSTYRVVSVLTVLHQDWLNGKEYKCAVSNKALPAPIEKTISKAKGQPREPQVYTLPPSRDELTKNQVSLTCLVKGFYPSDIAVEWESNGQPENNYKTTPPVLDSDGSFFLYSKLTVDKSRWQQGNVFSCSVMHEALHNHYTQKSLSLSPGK
light: B3 light
notes: as for B3
B6: H2L7-K12V/R83T (antibody, human IgG1, kappa, V domains shown)
VH: B2 VH with K12V, R87T
VL: B1 VL with V2I, T7S, T10S, I15L, K24R, L42I, K50R, T68S, L88V, I90V
notes: as for B3
B7: H9L8 (antibody, human IgG1, kappa, V domains shown)
VH: QVQLVQSGPEVKKPGSSVKVSCKASGYSFTGFTMNWVRQTPGKGLEWIGLINPYNGVTTYNQKFKGRVTITADESTRTAYMELLSLTYEDTAVYYCTREGNWEGVYWGQGTPVTVSA
VL: EVVLTQSPLSISVTLGQSASISCRSSQSLLDSNGKTYLHWFILRPGQSPRRLIYLVSILDSGIPDRFSGSGSGTDFTLKISRVEAEDVGVYYCVQGTHFPFTFGGGTKLEIKR
notes: Humanized IgG1/kappa, expressed in CHO cells; also called humanized Pyr12.2 variant H9L8; VH9/VL8
B8: Pyr7.1 (antibody, IgG2c, V domains shown)
VH: KVQLQQSGPELVKPGTSIKMSCKTSGYSFTGYTLNWVKQSPGKNPEWIGLINPYNGITTYNPKFMGKATLTVDKSSSTAYMELLSLTSEDSAVYYCSREGNWEGVYWGQGTLVTVSA
VL: not shown
notes: also called recombinant antibody Pyr7.1; hybridoma clone Pyr7.1
B9: AβpE11-28 monomer (peptide, UniProt P05067 682-699, looked up)
peptide: EVHHQKLVFFAEDVGSNK
modifications: pyroglutamate (pE) at position 11, the N-terminus
notes: range 11-28; The range counts on Aβ numbering, not on APP
B10: H2L7-R71A (antibody, human IgG1, kappa)
heavy: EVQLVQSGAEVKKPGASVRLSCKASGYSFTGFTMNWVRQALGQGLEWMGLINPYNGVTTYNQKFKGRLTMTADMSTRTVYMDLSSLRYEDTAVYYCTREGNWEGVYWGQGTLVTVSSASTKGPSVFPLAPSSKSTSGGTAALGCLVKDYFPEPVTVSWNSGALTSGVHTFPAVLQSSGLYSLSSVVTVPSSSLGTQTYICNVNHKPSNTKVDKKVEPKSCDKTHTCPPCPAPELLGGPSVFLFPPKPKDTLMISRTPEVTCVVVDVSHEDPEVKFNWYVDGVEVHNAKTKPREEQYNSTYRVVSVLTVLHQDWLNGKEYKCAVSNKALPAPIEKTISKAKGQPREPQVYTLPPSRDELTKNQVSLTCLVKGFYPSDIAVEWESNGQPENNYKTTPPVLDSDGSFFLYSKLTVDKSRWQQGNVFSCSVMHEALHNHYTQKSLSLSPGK
light: B3 light
notes: Variant of H2L7 with a change in VH only

In one test the target is T1, Aβ1-40 monomer (UniProt P05067 672-711).
T1 construct: range 1-40
As to the kind of experiment: inhibition ELISA. Here is the method:
(§1) The humanized antibodies were incubated at a fixed concentration (0.5 μg/ml) with titrating concentrations of the different Aβ antigens. […] The samples were incubated on the plate for 25 min without shaking followed by washing, incubation with detection antibody, another washing step and finally incubation with alkaline phosphatase substrate.

A further test concerns the target T2, AβpE11-40 monomer (UniProt P05067 682-711, pyroglutamate (pE) at position 11, the N-terminus).
T2 construct: range 11-40; The range counts on Aβ numbering, not on APP
T2 peptide (looked up): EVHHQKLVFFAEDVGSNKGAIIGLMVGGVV
Description: inhibition ELISA. Here is the method: as §1
(ELISA stands for enzyme-linked immunosorbent assay.)

The target of the next test is T3, Aβ2-42 monomer (UniProt P05067 673-713).
T3 construct: range 2-42; The range counts on Aβ numbering, not on APP
As to the kind of experiment: capture ELISA: plate coated with rabbit anti-Aβ42, peptide monomer captured, hybridoma supernatant, anti-mouse IgG-HRP, OD450 (Example 1).

A further test concerns the target T4, Aβ1-42 monomer (UniProt P05067 672-713).
T4 construct: range 1-42; The range counts on Aβ numbering, not on APP; also called monomeric Aβ1-42
Described as above.

The target in another test is T5, Aβ1-28 monomer (UniProt P05067 672-699).
T5 construct: range 1-28; The range counts on Aβ numbering, not on APP
Description: inhibition ELISA. Here is the method:
as §1

The target in a further test is T6, Aβ3-28 monomer (UniProt P05067 674-699).
T6 construct: range 3-28; The range counts on Aβ numbering, not on APP
Description: inhibition ELISA. Here is the method:
as §1

Another test deals with T7, Aβ2-28 monomer (UniProt P05067 673-699).
T7 construct: range 2-28; The range counts on Aβ numbering, not on APP
Description: inhibition ELISA. Here is the method:
as §1

The target of a further test is T8, Aβ1-42 protofibrils (UniProt P05067 672-713).
T8 construct: range 1-42; Soluble aggregates of Aβ1-42; The range counts on Aβ numbering, not on APP
Description: inhibition ELISA. Here is the method: as §1

The target in the next test is T9, Aβ4-28 monomer (UniProt P05067 675-699).
T9 construct: range 4-28; The range counts on Aβ numbering, not on APP
As to the kind of experiment: inhibition ELISA. How it is done:
as §1

Another test addresses T10, Aβ5-28 monomer (UniProt P05067 676-699).
T10 construct: range 5-28; The range counts on Aβ numbering, not on APP
Description: inhibition ELISA. Here is the method: as §1

The test “AβpE11-28 monomer” deals with B9. Description: inhibition ELISA. How it is done: as §1
The target in the next test is T11, AβpE3-28 monomer (UniProt P05067 674-699, pyroglutamate (pE) at position 3, the N-terminus).
T11 construct: range 3-28; The range counts on Aβ numbering, not on APP
Description: inhibition ELISA. How it is done:
as §1

The target of another test is T12, AβpE3-40 monomer (UniProt P05067 674-711, pyroglutamate (pE) at position 3, the N-terminus).
T12 construct: range 3-40; also called monomeric AβpE3-40
As to the kind of experiment: SPR (Biacore 8K), antibody immobilised on CM5, monomer injected, 1:1 model. How it is done:
For the measurements, 5 μg/ml of […] antibody was immobilized on the chip. The monomer was then injected over the chip using a 2-fold dilution in five steps starting at 250 nM, using 2 min injection of every […] concentration and a 20 min dissociation time. Regeneration of the surface between cycles was done by injecting 30 μl 3 M MgCl₂. The binding data was fitted to a 1:1 interaction model.
In all SPR experiments, 1×HBS-EP+ (Cytiva, cat. no. BR100669) was used to dilute antibodies and target antigens. Experiments were performed at 25° C.
Affinity evaluation and Ko determination by surface plasmon resonance: Binding interactions between antigens and antibodies were evaluated by SPR using a Biacore 8K instrument (Cytiva) according to standard procedures.
For orientation: Surface plasmon resonance follows binding to a sensor surface in real time, without labels.

The test “H9L8” deals with B7. As to the kind of experiment: inhibition ELISA: antigen in solution titrated, antibody fixed (0.5 µg/ml), AβpE3-40 coat. Here is the method:
as §1

In test [1] the target is B2. The test is described as above. Here is the method:
as §1

The target in the test “H2L7-K12V/R71A” is B4. Description: inhibition ELISA as in Example 6: antigen in solution titrated, antibody fixed, AβpE3-40 coat. How it is done:
as §1

Test [2] deals with B2. Described as above. How it is done:
as §1

The test “H2L7-K12V/R83T” has as its target B6. Described as above. How it is done:
as §1

H2L7-K12V/R83T, sequence (VH, as listed by the source, chain 1 of 2, one chain of several): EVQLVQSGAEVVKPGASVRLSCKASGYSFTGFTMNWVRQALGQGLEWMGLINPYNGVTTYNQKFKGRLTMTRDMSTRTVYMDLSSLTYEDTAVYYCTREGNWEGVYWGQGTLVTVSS
H2L7-K12V/R71A, sequence (heavy, as listed by the source, chain 1 of 2, one chain of several): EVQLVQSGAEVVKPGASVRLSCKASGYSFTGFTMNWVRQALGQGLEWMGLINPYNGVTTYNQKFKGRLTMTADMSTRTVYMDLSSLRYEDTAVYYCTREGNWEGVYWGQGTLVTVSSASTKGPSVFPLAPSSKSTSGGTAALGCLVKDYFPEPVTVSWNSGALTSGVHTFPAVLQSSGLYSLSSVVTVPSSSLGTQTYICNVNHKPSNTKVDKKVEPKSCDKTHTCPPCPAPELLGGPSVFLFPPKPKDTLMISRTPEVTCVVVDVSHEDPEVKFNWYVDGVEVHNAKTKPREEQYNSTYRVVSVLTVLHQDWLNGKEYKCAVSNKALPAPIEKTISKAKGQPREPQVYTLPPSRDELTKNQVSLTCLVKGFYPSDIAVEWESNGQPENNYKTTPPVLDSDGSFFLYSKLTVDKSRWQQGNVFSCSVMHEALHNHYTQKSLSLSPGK

Take B1: the binding result is recorded as “no binding (tested: 5 µM)” with Aβ1-40 monomer, “no binding (tested: 5 µM)” in the test with AβpE11-40 monomer, “no binding (tested: no concentration on the sheet)” with Aβ2-42 monomer and “no binding (tested: no concentration on the sheet)” in the test with Aβ1-42 monomer.
As to B2, the binding result is listed as “no binding (tested: 12500 nM)” in the test with Aβ1-28 monomer; “no binding (tested: 12.5 µM)” with Aβ1-40 monomer; “binds” with Aβ3-28 monomer; “no binding (tested: 12500 nM)” in the test with Aβ2-28 monomer; “no binding (tested: 500 nM)” in the test with Aβ1-42 protofibrils; “no binding (tested: 12500 nM)” in the test with Aβ4-28 monomer. For the same molecule, the binding result with Aβ5-28 monomer was “no binding (tested: 12500 nM)”; with AβpE11-28 monomer it was “no binding (tested: 12500 nM)”; in the test with AβpE3-28 monomer, “binds”.
In the test with AβpE3-40 monomer, B3 returned a dissociation constant (Kd) of 0.00462 µM, a dissociation rate constant (koff) of 0.000225 s⁻¹ and a kon of 50100 M⁻¹ s⁻¹. For the same molecule, the binding result with Aβ1-40 monomer is reported as “no binding (tested: 500 nM)”. Moreover, the binding result with Aβ1-42 protofibrils is on record as “no binding (tested: 132 nM)”.
For the molecule B4, the binding result is given as “no binding (tested: 500 nM)” with Aβ1-40 monomer, “binds” with Aβ3-28 monomer, “no binding (tested: 132 nM)” with Aβ1-42 protofibrils and “binds” with AβpE3-28 monomer.
For B5, the figures for the binding result in the test with Aβ1-40 monomer and in the test with Aβ1-42 protofibrils were “no binding (tested: 500 nM)” and “no binding (tested: 132 nM)”, respectively.
With B6, the binding result in the test with Aβ1-40 monomer is on record as “no binding (tested: 500 nM)”; with Aβ3-28 monomer, “binds”; with Aβ1-42 protofibrils, “no binding (tested: 132 nM)”; in the test with AβpE3-28 monomer, “binds”.
In the case of B7, the binding result with Aβ1-28 monomer is reported as “no binding (tested: 12.5 µM)”; with Aβ1-40 monomer, “no binding (tested: 12.5 µM)”; with Aβ3-28 monomer, “binds”; with Aβ2-28 monomer, “no binding (tested: 12.5 µM)”; with Aβ1-42 protofibrils, “no binding (tested: 500 nM)”; in the test with Aβ4-28 monomer it was “no binding (tested: 12.5 µM)”. Besides, the figures for the binding result with Aβ5-28 monomer, in the test with AβpE11-28 monomer and in the test with AβpE3-28 monomer were “no binding (tested: 12.5 µM)”, “no binding (tested: 12.5 µM)” and “binds”, respectively.
As for B8, the binding result with Aβ1-40 monomer is given as “no binding (tested: 5 µM)”; in the test with AβpE11-40 monomer, “no binding (tested: 5 µM)”; with Aβ2-42 monomer, “no binding (tested: no concentration on the sheet)”; in the test with Aβ1-42 monomer, “no binding (tested: no concentration on the sheet)”.
As for B9, the IC50 in the test with H9L8, with H2L7 [1], with H2L7-K12V/R71A, with H2L7 [2] and with H2L7-K12V/R83T was over 12.5 µM throughout.
For B10, the results for the binding result with Aβ1-40 monomer and with Aβ1-42 protofibrils were “no binding (tested: 500 nM)” and “no binding (tested: 132 nM)”, respectively.

Broadly, the Kd is the equilibrium constant for the complex coming apart. High values mean lower affinity, low ones higher affinity. In general, koff refers to the first-order rate constant of dissociation. Broadly, the kon is a measure of how fast the partners come together. A higher kon goes with faster complex formation. Broadly, the IC50 is the point on the concentration scale where inhibition reaches its midpoint.
